Sequences and labels used below:
T1: human glucose-dependent insulinotropic polypeptide (GIP) receptor (human, UniProt P48546 22-466)
T1 construct: whole, on cells; Assayed as crude membranes of stably transfected CHO cells; also called hGIPR; human GIP receptor
T1 sequence (looked up): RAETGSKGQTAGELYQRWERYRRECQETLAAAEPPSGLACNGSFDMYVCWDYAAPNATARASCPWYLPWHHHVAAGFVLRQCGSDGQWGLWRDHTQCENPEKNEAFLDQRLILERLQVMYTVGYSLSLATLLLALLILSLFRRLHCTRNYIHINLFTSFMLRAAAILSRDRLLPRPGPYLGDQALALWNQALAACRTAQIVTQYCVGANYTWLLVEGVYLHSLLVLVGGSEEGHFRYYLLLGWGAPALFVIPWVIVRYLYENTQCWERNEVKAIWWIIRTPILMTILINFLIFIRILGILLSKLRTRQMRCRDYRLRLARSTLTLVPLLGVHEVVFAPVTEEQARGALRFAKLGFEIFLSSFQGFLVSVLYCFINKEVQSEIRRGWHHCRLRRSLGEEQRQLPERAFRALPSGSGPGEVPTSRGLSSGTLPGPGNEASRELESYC

B1: Example 54 (peptide)
peptide: Y[Aib]EGTFISDYSI[αMeL]LDKK([AEEA-AEEA-γGlu-C20 diacid])HQ[Aib]DFVEWLLAGGPSSGAPPPS-NH2
modifications: N-terminus assumed
SMILES: CC[C@H](C)[C@H](NC(=O)[C@H](Cc1ccccc1)NC(=O)[C@@H](NC(=O)CNC(=O)[C@H](CCC(=O)O)NC(=O)C(C)(C)NC(=O)[C@@H](N)Cc1ccc(O)cc1)[C@@H](C)O)C(=O)N[C@@H](CO)C(=O)N[C@@H](CC(=O)O)C(=O)N[C@@H](Cc1ccc(O)cc1)C(=O)N[C@@H](CO)C(=O)N[C@H](C(=O)N[C@@](C)(CC(C)C)C(=O)N[C@@H](CC(C)C)C(=O)N[C@@H](CC(=O)O)C(=O)N[C@@H](CCCCN)C(=O)N[C@@H](CCCCNC(=O)COCCOCCNC(=O)COCCOCCNC(=O)CC[C@H](NC(=O)CCCCCCCCCCCCCCCCCCC(=O)O)C(=O)O)C(=O)N[C@@H](Cc1c[nH]cn1)C(=O)N[C@@H](CCC(N)=O)C(=O)NC(C)(C)C(=O)N[C@@H](CC(=O)O)C(=O)N[C@@H](Cc1ccccc1)C(=O)N[C@H](C(=O)N[C@@H](CCC(=O)O)C(=O)N[C@@H](Cc1c[nH]c2ccccc12)C(=O)N[C@@H](CC(C)C)C(=O)N[C@@H](CC(C)C)C(=O)N[C@@H](C)C(=O)NCC(=O)NCC(=O)N1CCC[C@H]1C(=O)N[C@@H](CO)C(=O)N[C@@H](CO)C(=O)NCC(=O)N[C@@H](C)C(=O)N1CCC[C@H]1C(=O)N1CCC[C@H]1C(=O)N1CCC[C@H]1C(=O)N[C@@H](CO)C(N)=O)C(C)C)[C@@H](C)CC
B2: Example 65 (peptide)
peptide: Y[Aib]EGTFISDYSI[αMeL]LDKK([AEEA-AEEA-γGlu-C20 diacid])HQ[Aib]EFVEYLLEAGPSSGAPPPS-NH2
modifications: N-terminus assumed
SMILES: CC[C@H](C)[C@H](NC(=O)[C@H](Cc1ccccc1)NC(=O)[C@@H](NC(=O)CNC(=O)[C@H](CCC(=O)O)NC(=O)C(C)(C)NC(=O)[C@@H](N)Cc1ccc(O)cc1)[C@@H](C)O)C(=O)N[C@@H](CO)C(=O)N[C@@H](CC(=O)O)C(=O)N[C@@H](Cc1ccc(O)cc1)C(=O)N[C@@H](CO)C(=O)N[C@H](C(=O)N[C@@](C)(CC(C)C)C(=O)N[C@@H](CC(C)C)C(=O)N[C@@H](CC(=O)O)C(=O)N[C@@H](CCCCN)C(=O)N[C@@H](CCCCNC(=O)COCCOCCNC(=O)COCCOCCNC(=O)CC[C@H](NC(=O)CCCCCCCCCCCCCCCCCCC(=O)O)C(=O)O)C(=O)N[C@@H](Cc1c[nH]cn1)C(=O)N[C@@H](CCC(N)=O)C(=O)NC(C)(C)C(=O)N[C@@H](CCC(=O)O)C(=O)N[C@@H](Cc1ccccc1)C(=O)N[C@H](C(=O)N[C@@H](CCC(=O)O)C(=O)N[C@@H](Cc1ccc(O)cc1)C(=O)N[C@@H](CC(C)C)C(=O)N[C@@H](CC(C)C)C(=O)N[C@@H](CCC(=O)O)C(=O)N[C@@H](C)C(=O)NCC(=O)N1CCC[C@H]1C(=O)N[C@@H](CO)C(=O)N[C@@H](CO)C(=O)NCC(=O)N[C@@H](C)C(=O)N1CCC[C@H]1C(=O)N1CCC[C@H]1C(=O)N1CCC[C@H]1C(=O)N[C@@H](CO)C(N)=O)C(C)C)[C@@H](C)CC
B3: Example 63 (peptide)
peptide: Y[Aib]EGTFISDYSI[αMeL]LDKK([AEEA-AEEA-γGlu-C20 diacid])HQ[Aib]EFVEYLLEQGPSSGAPPPS-NH2
modifications: N-terminus assumed
SMILES: CC[C@H](C)[C@H](NC(=O)[C@H](Cc1ccccc1)NC(=O)[C@@H](NC(=O)CNC(=O)[C@H](CCC(=O)O)NC(=O)C(C)(C)NC(=O)[C@@H](N)Cc1ccc(O)cc1)[C@@H](C)O)C(=O)N[C@@H](CO)C(=O)N[C@@H](CC(=O)O)C(=O)N[C@@H](Cc1ccc(O)cc1)C(=O)N[C@@H](CO)C(=O)N[C@H](C(=O)N[C@@](C)(CC(C)C)C(=O)N[C@@H](CC(C)C)C(=O)N[C@@H](CC(=O)O)C(=O)N[C@@H](CCCCN)C(=O)N[C@@H](CCCCNC(=O)COCCOCCNC(=O)COCCOCCNC(=O)CC[C@H](NC(=O)CCCCCCCCCCCCCCCCCCC(=O)O)C(=O)O)C(=O)N[C@@H](Cc1c[nH]cn1)C(=O)N[C@@H](CCC(N)=O)C(=O)NC(C)(C)C(=O)N[C@@H](CCC(=O)O)C(=O)N[C@@H](Cc1ccccc1)C(=O)N[C@H](C(=O)N[C@@H](CCC(=O)O)C(=O)N[C@@H](Cc1ccc(O)cc1)C(=O)N[C@@H](CC(C)C)C(=O)N[C@@H](CC(C)C)C(=O)N[C@@H](CCC(=O)O)C(=O)N[C@@H](CCC(N)=O)C(=O)NCC(=O)N1CCC[C@H]1C(=O)N[C@@H](CO)C(=O)N[C@@H](CO)C(=O)NCC(=O)N[C@@H](C)C(=O)N1CCC[C@H]1C(=O)N1CCC[C@H]1C(=O)N1CCC[C@H]1C(=O)N[C@@H](CO)C(N)=O)C(C)C)[C@@H](C)CC
B4: Example 66 (peptide)
peptide: Y[Aib]EGTFISDYSI[αMeL]LDKK([AEEA-AEEA-γGlu-C20 diacid])HQ[Aib]DFVEYLLETGPSSGAPPPS-NH2
modifications: N-terminus assumed
SMILES: CC[C@H](C)[C@H](NC(=O)[C@H](Cc1ccccc1)NC(=O)[C@@H](NC(=O)CNC(=O)[C@H](CCC(=O)O)NC(=O)C(C)(C)NC(=O)[C@@H](N)Cc1ccc(O)cc1)[C@@H](C)O)C(=O)N[C@@H](CO)C(=O)N[C@@H](CC(=O)O)C(=O)N[C@@H](Cc1ccc(O)cc1)C(=O)N[C@@H](CO)C(=O)N[C@H](C(=O)N[C@@](C)(CC(C)C)C(=O)N[C@@H](CC(C)C)C(=O)N[C@@H](CC(=O)O)C(=O)N[C@@H](CCCCN)C(=O)N[C@@H](CCCCNC(=O)COCCOCCNC(=O)COCCOCCNC(=O)CC[C@H](NC(=O)CCCCCCCCCCCCCCCCCCC(=O)O)C(=O)O)C(=O)N[C@@H](Cc1c[nH]cn1)C(=O)N[C@@H](CCC(N)=O)C(=O)NC(C)(C)C(=O)N[C@@H](CC(=O)O)C(=O)N[C@@H](Cc1ccccc1)C(=O)N[C@H](C(=O)N[C@@H](CCC(=O)O)C(=O)N[C@@H](Cc1ccc(O)cc1)C(=O)N[C@@H](CC(C)C)C(=O)N[C@@H](CC(C)C)C(=O)N[C@@H](CCC(=O)O)C(=O)N[C@H](C(=O)NCC(=O)N1CCC[C@H]1C(=O)N[C@@H](CO)C(=O)N[C@@H](CO)C(=O)NCC(=O)N[C@@H](C)C(=O)N1CCC[C@H]1C(=O)N1CCC[C@H]1C(=O)N1CCC[C@H]1C(=O)N[C@@H](CO)C(N)=O)[C@@H](C)O)C(C)C)[C@@H](C)CC
B5: Example 64 (peptide)
peptide: Y[Aib]EGTFISDYSI[αMeL]LDKK([AEEA-AEEA-γGlu-C20 diacid])HQ[Aib]EFVEYLLETGPSSGAPPPS-NH2
modifications: N-terminus assumed
SMILES: CC[C@H](C)[C@H](NC(=O)[C@H](Cc1ccccc1)NC(=O)[C@@H](NC(=O)CNC(=O)[C@H](CCC(=O)O)NC(=O)C(C)(C)NC(=O)[C@@H](N)Cc1ccc(O)cc1)[C@@H](C)O)C(=O)N[C@@H](CO)C(=O)N[C@@H](CC(=O)O)C(=O)N[C@@H](Cc1ccc(O)cc1)C(=O)N[C@@H](CO)C(=O)N[C@H](C(=O)N[C@@](C)(CC(C)C)C(=O)N[C@@H](CC(C)C)C(=O)N[C@@H](CC(=O)O)C(=O)N[C@@H](CCCCN)C(=O)N[C@@H](CCCCNC(=O)COCCOCCNC(=O)COCCOCCNC(=O)CC[C@H](NC(=O)CCCCCCCCCCCCCCCCCCC(=O)O)C(=O)O)C(=O)N[C@@H](Cc1c[nH]cn1)C(=O)N[C@@H](CCC(N)=O)C(=O)NC(C)(C)C(=O)N[C@@H](CCC(=O)O)C(=O)N[C@@H](Cc1ccccc1)C(=O)N[C@H](C(=O)N[C@@H](CCC(=O)O)C(=O)N[C@@H](Cc1ccc(O)cc1)C(=O)N[C@@H](CC(C)C)C(=O)N[C@@H](CC(C)C)C(=O)N[C@@H](CCC(=O)O)C(=O)N[C@H](C(=O)NCC(=O)N1CCC[C@H]1C(=O)N[C@@H](CO)C(=O)N[C@@H](CO)C(=O)NCC(=O)N[C@@H](C)C(=O)N1CCC[C@H]1C(=O)N1CCC[C@H]1C(=O)N1CCC[C@H]1C(=O)N[C@@H](CO)C(N)=O)[C@@H](C)O)C(C)C)[C@@H](C)CC

Starred links: 1 amine or outer side, 2 acyl side, 3 side chain; linkers in the order of their positions; H or OH if unused. Non-standard residues stand in square brackets, D forms with d. Groups on a side chain read outwards from the residue. No end group written: not given here. *: point of attachment. C20 diacid = O=C(O)CCCCCCCCCCCCCCCCCCC(=O)*; γGlu = O=C(O)[C@H](CCC(=O)[*:2])N[*:1]; αMeL = CC(C)C[C@](C)(N)C(=O)O; AEEA = NCCOCCOCC(=O)O; Aib = CC(C)(N)C(=O)O

T3 sequence (P47871 26-477): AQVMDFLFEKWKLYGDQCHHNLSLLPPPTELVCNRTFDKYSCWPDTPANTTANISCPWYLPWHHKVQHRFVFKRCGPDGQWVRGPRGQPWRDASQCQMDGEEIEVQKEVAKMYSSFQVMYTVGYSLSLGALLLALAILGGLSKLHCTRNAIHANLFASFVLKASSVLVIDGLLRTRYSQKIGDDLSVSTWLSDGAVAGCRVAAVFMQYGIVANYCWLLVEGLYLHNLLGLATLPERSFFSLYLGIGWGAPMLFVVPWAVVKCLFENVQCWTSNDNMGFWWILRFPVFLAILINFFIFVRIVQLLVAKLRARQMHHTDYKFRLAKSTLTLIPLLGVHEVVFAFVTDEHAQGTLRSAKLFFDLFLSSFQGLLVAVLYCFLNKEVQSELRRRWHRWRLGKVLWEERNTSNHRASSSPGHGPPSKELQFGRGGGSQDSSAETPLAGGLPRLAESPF

The first experiment has as its target T2, human GLP-1 receptor (human, UniProt P43220 24-463).
T2 construct: whole, on cells; Assayed as crude membranes of stably transfected HEK293 cells; also called hGLP1R; hGLP-1R
Kind of experiment: SPA, displacement of [125I]-GLP-1 from hGLP-1R membranes, 0.1% bacitracin. Summed up: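 Binding buffer: 25 mM HEPES pH 7.4, 2.5 mM CaCl₂, 1 mM MgCl₂, 0.1% bacitracin, 0.003% Tween-20, protease inhibitors without EDTA. Four-parameter nonlinear regression; Kᵢ given as geometric mean ± SEM, n = independent replicates run on different days.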
In general terms: In a radioligand displacement assay an active substance lowers the binding of a labelled ligand.
Regarding B1, the affinity corresponds to a Ki of 49.9 nM.

Molecule B2 registered a Ki of 305 nM.

As to B3, the Ki was 327 nM.

Take B4: the Ki was 326 nM.

For the molecule B5, the Ki was determined as 477 nM.

The next experiment has as its target T3, human glucagon receptor (human, UniProt P47871 26-477).
T3 construct: whole, on cells; Assayed as crude membranes of stably transfected HEK293 cells; also called hGcgR; GcgR
Kind of experiment: SPA, displacement of [125I]-Gcg from hGcgR membranes, 0.1% bacitracin. A digest of the protocol: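 Binding buffer: 25 mM HEPES pH 7.4, 2.5 mM CaCl₂, 1 mM MgCl₂, 0.003% Tween-20, protease inhibitors without EDTA. Counted by scintillation after 12 h incubation/settling at room temperature. Four-parameter nonlinear fit; Kᵢ given as geometric mean ± SEM of independent replicates run on different days.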
On to B1, for which the Ki was 386 nM.

B2 showed a Ki of 279 nM. This Ki and that of the molecule before are within 1.5-fold of each other.

B3 registered a Ki of 185 nM. Compared with the last molecule, the Ki is about 1.5-fold lower.

B4 gave a Ki of 279 nM.

B5 registered a Ki of 196 nM.

The next experiment concerns the target T1, human glucose-dependent insulinotropic …. The experiment can be described thus: SPA, displacement of [125I]-GIP from hGIPR membranes, 0.1% bacitracin.
Consider B1, for which the Ki was 0.0326 nM.

On to B2, for which affinity was put at a Ki of 0.0316 nM.

As to B3, the Ki was 0.0248 nM.

For the molecule B4, the Ki worked out at 0.0866 nM. Against the preceding molecule, the Ki is about 3.5-fold higher.

The molecule B5 showed a Ki of 0.022 nM.

As a reminder, the Ki is a measure of affinity in units of concentration, obtained from inhibition or displacement. A lower Ki goes with higher affinity.

These data come from patent publication US20210032299A1 (Eli Lilly, published 2021).
